Measured values taken from US5643731A, “Use of pairs of leucine zipper peptides in immunoassay methods” (Behringwerke Aktiengesellschaft, priority 1990, dated 1997).

Tests used:
[1] = biological target: T1, Jun-anti-AFP antibody binding to the Fos-coated microtiter plate (FBJ murine osteosarcoma virus, UniProt P01102); experiment: Inhibition of the Jun-anti-AFP antibody binding to the Fos-coated microtiter plate by addition of free peptide
T1 construct: host or cells: synthetic peptides; conjugate made in house
Description: 100 μl portions of a Jun peptide-anti-AFP antibody conjugate (anti-AFP antibodies from sheep) prepared as in Example 2, Step 3 or 3a are pipetted into the wells of microtiter plates which were coated with Fos peptide as in Example 2, Step 1, and incubated at 37° C. for 2h. After the wells had been washed three times with washing buffer (OSEW, Behringwerke), 20 μl portions of standard or sample and 100 μl of a buffer (OSND, Behringwerke) with the addition of peroxidase-conjugated anti-AFP antibodies from sheep were introduced. The two-hour incubation at 37° C. is again stopped with a washing step (see above), and the substrate/chromogen reaction is carried out as in Example 2, Step 4.
The Jun/Fos AFP assay described hereinbefore was preceded by an incubation step with 100 μl in each case of a Jun or Fos peptide-containing buffer solution (buffer=OSND) per well at 37° C. for one hour. After 3 washes, the subsequent assay procedure was as specified above.

[2] = biological target: c-Jun "leucine zipper peptide" (SEQ ID No1) (Homo sapiens, UniProt P05412); conditions: cited from earlier work

Row | Sequence | inhibition of the binding of Jun-anti-AFP antibody to the Fos-coated solid phase ([1]; addition of free peptide) | Measured signal (extinction 450 nm) Standard S0 (0 IU AFP/ml) ([1]; free peptide 5 μg/ml) | Measured signal (extinction 450 nm) Standard S5 (300 IU AFP/ml) ([1]; free peptide 5 μg/ml) | Measured signal (extinction 450 nm) Standard S0 (0 IU AFP/ml) ([1]; free peptide 50 μg/ml) | Measured signal (extinction 450 nm) Standard S5 (300 IU AFP/ml) ([1]; free peptide 50 μg/ml) | Measured signal (extinction 450 nm) Standard S0 (0 IU AFP/ml) ([1]; free peptide 500 μg/ml) | Measured signal (extinction 450 nm) Standard S5 (300 IU AFP/ml) ([1]; free peptide 500 μg/ml) | heterodimeric complexes with the c-Jun "leucine zipper peptide" [2]
1 | RIARLEEKVKTLKAQNSELASTANMLREQVAQLKQKVMNY [Jun, synthetic peptide comprising amino-acid positions 285 to 324, the so-called leucine zipper of the c-Jun protein] | possible to inhibit the binding | 0.015 | 3.486 | 0.011 | 2.857 | 0.013 | 1.371 | –
2 | LTDTLQAETDQLEDKKSALQTEIANLLKEKEKLEFILAAY [Fos, synthetic peptide comprising positions 162 to 201, the leucine zipper of the v-Fos protein] | – | 0.010 | 3.416 | 0.011 | 3.572 | 0.015 | 3.694 | forms very stable heterodimeric complexes
